The test addresses T1, full-length hCDCP1 with N-terminal c-Myc tag (expression vector GS01), on Ba/F3-hCDCP1 cells or … (human, UniProt Q9H5V8 30-836).
T1 construct: also called human CDCP1; hCDCP1 forced expression cells
T1 sequence: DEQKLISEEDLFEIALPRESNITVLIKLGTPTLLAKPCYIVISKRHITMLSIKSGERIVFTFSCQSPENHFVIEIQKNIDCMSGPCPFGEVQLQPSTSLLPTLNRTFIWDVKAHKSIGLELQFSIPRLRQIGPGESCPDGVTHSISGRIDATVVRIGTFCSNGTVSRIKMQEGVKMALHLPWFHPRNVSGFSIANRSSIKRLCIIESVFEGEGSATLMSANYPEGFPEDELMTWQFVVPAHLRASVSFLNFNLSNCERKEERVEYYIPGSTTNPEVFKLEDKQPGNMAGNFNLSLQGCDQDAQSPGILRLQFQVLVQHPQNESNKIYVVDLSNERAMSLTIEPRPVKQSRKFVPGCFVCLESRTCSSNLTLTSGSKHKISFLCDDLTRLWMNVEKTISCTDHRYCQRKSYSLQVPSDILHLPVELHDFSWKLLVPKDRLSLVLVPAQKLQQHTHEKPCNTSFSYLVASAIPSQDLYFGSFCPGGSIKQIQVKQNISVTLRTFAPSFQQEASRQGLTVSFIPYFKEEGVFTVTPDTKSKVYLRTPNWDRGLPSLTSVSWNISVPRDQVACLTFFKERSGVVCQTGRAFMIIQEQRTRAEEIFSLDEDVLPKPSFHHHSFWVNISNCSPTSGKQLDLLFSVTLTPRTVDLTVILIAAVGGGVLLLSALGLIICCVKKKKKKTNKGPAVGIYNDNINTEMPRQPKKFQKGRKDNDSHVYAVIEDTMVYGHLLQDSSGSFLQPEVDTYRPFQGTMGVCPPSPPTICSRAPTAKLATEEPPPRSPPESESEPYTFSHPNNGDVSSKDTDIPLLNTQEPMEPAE
Kind of test: flow cytometry on Ba/F3-hCDCP1 cells.

B1: h12A041VH1/VL (antibody, human IgG1, kappa, V domains shown)
VH: QVTLRESGPALVKPTQTLTLTCTFSGFSLSTSGMGVSWIRQPPGKALEWLAHIYWDDDKRYNPSLKSRLTISKDTSKNQVVLTMTNMDPVDTATYYCARSGSYYGSSLDSWGQGTTVTVSS
VL: DIVMTQSPLSLPVTPGEPASISCRSSQSIVHSSGNTYLEWYLQKPGQSPQLLIYKVSNRFSGVPDRFSGSGSGTDFTLKISRVEAEDVGVYYCFQGSHVPWTFGGGTKVEIKR
notes: humanized antibody, human IgG1/kappa constant regions; also called h12A041VH1/VL-biotin (biotinylated form)
On to B1, for which the binding result is “binds”.

B2: h12A041VH1/VLB (antibody, human IgG1, kappa, V domains shown)
VH: QVTLRESGPALVKPTQTLTLTCTFSGFSLSTSGMGVSWIRQPPGKALEWLAHIYWDDDKRYNPSLKSRLTISKDTSKNQVVLTMTNMDPVDTATYYCARSGSYYGSSLDSWGQGTTVTVSS
VL: DIVMTQSPLSLPVTPGEPASISCRSSQNIVHSDGNTYLEWYLQKPGQSPQLLIYKVSNRFSGVPDRFSGSGSGTDFTLKISRVEAEDVGVYYCFQGSHVPWTFGGGTKVEIKR
notes: humanized antibody, human IgG1/kappa constant regions; also called h12A041VH1/VLB-biotin (biotinylated form)
On to B2, for which the binding result is reported as “binds”.

B3: h12A041VH1/VLA (antibody, human IgG1, kappa, V domains shown)
VH: QVTLRESGPALVKPTQTLTLTCTFSGFSLSTSGMGVSWIRQPPGKALEWLAHIYWDDDKRYNPSLKSRLTISKDTSKNQVVLTMTNMDPVDTATYYCARSGSYYGSSLDSWGQGTTVTVSS
VL: DIVMTQSPLSLPVTPGEPASISCRSSQSIVYSSGNTYLEWYLQKPGQSPQLLIYKVSNRFSGVPDRFSGSGSGTDFTLKISRVEAEDVGVYYCFQGSHVPWTFGGGTKVEIKR
notes: humanized antibody, human IgG1/kappa constant regions; also called h12A041VH1/VLA-biotin (biotinylated form); h12A041VH1NLA-biotin
As for B3, the binding result is reported as “binds”.

B4: mh14A063HCori/LCv1 (antibody, human IgG1, kappa, V domains shown)
VH: EVQLQESGGGLVQPGGSLKLSCAASGFTFSSYTMSWVRQTPEKRLEWVAYISNGGGSTYYPDTVKGRFTISRDNAKNTLYLQMSSLKSEDTAMYYCARYDLGFAYWGQGTLVTVSS
VL: NIVLTQSPASLAVSLGQRATISCRASESVDSYGNSFLHWYQQKPGQPPKLLIFLASNLESGVPARFSGSGSRTDFTLTIDPVEADDAATYYCQQNNEDPWTFGGGTNLEIKR
notes: mouse-human chimeric antibody, human IgG1/kappa constant regions
Regarding B4, the binding result is listed as “binds”.

B5: mh14A063HCv1/LCv1 (antibody, human IgG1, kappa, V domains shown)
VH: EVQLQESGGGLVQPGGSLKLSCAASGFTFSSYTMSWVRQTPEKRLEWVAYISSGGGSTYYPDTVKGRFTISRDNAKNTLYLQMSSLKSEDTAMYYCARYDLGFAYWGQGTLVTVSS
VL: NIVLTQSPASLAVSLGQRATISCRASESVDSYGNSFLHWYQQKPGQPPKLLIFLASNLESGVPARFSGSGSRTDFTLTIDPVEADDAATYYCQQNNEDPWTFGGGTNLEIKR
notes: as for B4
On to B5, for which the binding result is recorded as “binds”.

B6: mh14A063HCv2/LCv1 (antibody, human IgG1, kappa, V domains shown)
VH: EVQLQESGGGLVQPGGSLKLSCAASGFTFSSYTMSWVRQTPEKRLEWVAYISNAGGSTYYPDTVKGRFTISRDNAKNTLYLQMSSLKSEDTAMYYCARYDLGFAYWGQGTLVTVSS
VL: NIVLTQSPASLAVSLGQRATISCRASESVDSYGNSFLHWYQQKPGQPPKLLIFLASNLESGVPARFSGSGSRTDFTLTIDPVEADDAATYYCQQNNEDPWTFGGGTNLEIKR
notes: as for B4
As to B6, the binding result is reported as “binds”.

B7: mh14A063HCv2/LCori (antibody, human IgG1, kappa, V domains shown)
VH: EVQLQESGGGLVQPGGSLKLSCAASGFTFSSYTMSWVRQTPEKRLEWVAYISNAGGSTYYPDTVKGRFTISRDNAKNTLYLQMSSLKSEDTAMYYCARYDLGFAYWGQGTLVTVSS
VL: NIVLTQSPASLAVSLGQRATISCRASESVDSYGNSFMHWYQQKPGQPPKLLIFLASNLESGVPARFSGSGSRTDFTLTIDPVEADDAATYYCQQNNEDPWTFGGGTNLEIKR
notes: as for B4
For the molecule B7, the binding result is reported as “binds”.

B8: mh14A063HCv1/LCori (antibody, human IgG1, kappa, V domains shown)
VH: EVQLQESGGGLVQPGGSLKLSCAASGFTFSSYTMSWVRQTPEKRLEWVAYISSGGGSTYYPDTVKGRFTISRDNAKNTLYLQMSSLKSEDTAMYYCARYDLGFAYWGQGTLVTVSS
VL: NIVLTQSPASLAVSLGQRATISCRASESVDSYGNSFMHWYQQKPGQPPKLLIFLASNLESGVPARFSGSGSRTDFTLTIDPVEADDAATYYCQQNNEDPWTFGGGTNLEIKR
notes: as for B4
Consider B8, for which the binding result is given as “binds”.

B9: mh14A025HCv21/LCori (antibody, human IgG1, kappa, V domains shown)
VH: EVQLQESGAELVRPGALVKLSCKASGFNIKDYYMHWVKQRPEQGLEWIGWIDPETGNTIYDPKFQGKASITADTSSNTAYLQLSSLTSEDTAVYYCGGLLYAMDYWGQGTSVTVSS
VL: DIQMTQTTSSLSASLGDRVTISCRASQDISNYLNWYQQKPDGTVKLLIYFTSRLHSGVPSRFSGSGSGTDYSLTISNLEQEDIATYFCQQGNTLPRTFGGGTKLEIRR
notes: as for B4
As to B9, the binding result is “binds”.

B10: mh14A043HCv1/LCori (antibody, human IgG1, kappa, V domains shown)
VH: EVQLQESGAELVRPGALVKLSCKASGFNIKDYYMNWVKQRPEQGLEWIGWIDPESGNTIYDPKFQGKASITADTSSNTAYLQLSSLTSEDTAVYYCYGSSYRFTYWGQGTLVTVSS
VL: QIVLIQSPALMSASPGEKVTMTCSASSSVSYMYWYQQKPRSSPKPWIYLTSNLASGVPARFSGSGSGTSYSLTISSMEAEDAATYYCQQWSSNPFTFGSGTKLEIKR
notes: as for B4
As for B10, the binding result was “binds”.

B11: mh14A043HCv2/LCv1 (antibody, human IgG1, kappa, V domains shown)
VH: EVQLQESGAELVRPGALVKLSCKASGFNIKDYYMNWVKQRPEQGLEWIGWIDPENANTIYDPKFQGKASITADTSSNTAYLQLSSLTSEDTAVYYCYGSSYRFTYWGQGTLVTVSS
VL: QIVLIQSPALMSASPGEKVTMTCSASSSVSYLYWYQQKPRSSPKPWIYLTSNLASGVPARFSGSGSGTSYSLTISSMEAEDAATYYCQQWSSNPFTFGSGTKLEIKR
notes: as for B4
Turning to B11, the binding result was “binds”.

B12: mh14A043HCv1/LCv1 (antibody, human IgG1, kappa, V domains shown)
VH: EVQLQESGAELVRPGALVKLSCKASGFNIKDYYMNWVKQRPEQGLEWIGWIDPESGNTIYDPKFQGKASITADTSSNTAYLQLSSLTSEDTAVYYCYGSSYRFTYWGQGTLVTVSS
VL: QIVLIQSPALMSASPGEKVTMTCSASSSVSYLYWYQQKPRSSPKPWIYLTSNLASGVPARFSGSGSGTSYSLTISSMEAEDAATYYCQQWSSNPFTFGSGTKLEIKR
notes: as for B4
Take B12: the binding result is listed as “binds”.

B13: mh14A043HCv2/LCori (antibody, human IgG1, kappa, V domains shown)
VH: EVQLQESGAELVRPGALVKLSCKASGFNIKDYYMNWVKQRPEQGLEWIGWIDPENANTIYDPKFQGKASITADTSSNTAYLQLSSLTSEDTAVYYCYGSSYRFTYWGQGTLVTVSS
VL: QIVLIQSPALMSASPGEKVTMTCSASSSVSYMYWYQQKPRSSPKPWIYLTSNLASGVPARFSGSGSGTSYSLTISSMEAEDAATYYCQQWSSNPFTFGSGTKLEIKR
notes: as for B4
Consider B13, for which the binding result is on record as “binds”.

B14: mh14A025HCv24/LCori (antibody, human IgG1, kappa, V domains shown)
VH: EVQLQESGAELVRPGALVKLSCKASGFNIKDYYMHWVKQRPEQGLEWIGWIDPEWGNTIYDPKFQGKASITADTSSNTAYLQLSSLTSEDTAVYYCGGLLYAMDYWGQGTSVTVSS
VL: DIQMTQTTSSLSASLGDRVTISCRASQDISNYLNWYQQKPDGTVKLLIYFTSRLHSGVPSRFSGSGSGTDYSLTISNLEQEDIATYFCQQGNTLPRTFGGGTKLEIRR
notes: as for B4
In the case of B14, the binding result is reported as “binds”.

B15: mh14A043HCori/LCv1 (antibody, human IgG1, kappa, V domains shown)
VH: EVQLQESGAELVRPGALVKLSCKASGFNIKDYYMNWVKQRPEQGLEWIGWIDPENGNTIYDPKFQGKASITADTSSNTAYLQLSSLTSEDTAVYYCYGSSYRFTYWGQGTLVTVSS
VL: QIVLIQSPALMSASPGEKVTMTCSASSSVSYLYWYQQKPRSSPKPWIYLTSNLASGVPARFSGSGSGTSYSLTISSMEAEDAATYYCQQWSSNPFTFGSGTKLEIKR
notes: as for B4
On to B15, for which the binding result is “binds”.
